Results on one molecule are retold here after PMC8813930, “The toposiomerase IIIalpha-RMI1-RMI2 complex orients human Bloom’s syndrome helicase for efficient disruption of D-loops”.

In this series the target is TOPOIIIalpha (TRR complex);RMI1 (TRR complex);RMI2 (TRR complex) (Homo sapiens;Homo sapiens;Homo sapiens, UniProt Q13472;Q9H9A7;Q96E14 1-1001;1-625;1-147, ||). The series is described as follows: fluorescence anisotropy; 5 mM MgCl2; 50 mM Tris-HCl pH 7.5, 50 mM NaCl, 1 mM DTT, 5 mM MgCl2, 50 µg/mL BSA, 25 °C; 10 nM labeled DNA in direct titrations. The note with it: protein: recombinant;recombinant;recombinant; tags: His;;; copies: 1;1;1; label: 3'-fluorescein; single strand. (In general: Polarisation of emitted light reports the rotation of a fluorescent probe.)
Sequence of TOPOIIIalpha (TRR complex);RMI1 (TRR complex);RMI2 (TRR complex) (Q13472 whole entry, chain 1 of 3): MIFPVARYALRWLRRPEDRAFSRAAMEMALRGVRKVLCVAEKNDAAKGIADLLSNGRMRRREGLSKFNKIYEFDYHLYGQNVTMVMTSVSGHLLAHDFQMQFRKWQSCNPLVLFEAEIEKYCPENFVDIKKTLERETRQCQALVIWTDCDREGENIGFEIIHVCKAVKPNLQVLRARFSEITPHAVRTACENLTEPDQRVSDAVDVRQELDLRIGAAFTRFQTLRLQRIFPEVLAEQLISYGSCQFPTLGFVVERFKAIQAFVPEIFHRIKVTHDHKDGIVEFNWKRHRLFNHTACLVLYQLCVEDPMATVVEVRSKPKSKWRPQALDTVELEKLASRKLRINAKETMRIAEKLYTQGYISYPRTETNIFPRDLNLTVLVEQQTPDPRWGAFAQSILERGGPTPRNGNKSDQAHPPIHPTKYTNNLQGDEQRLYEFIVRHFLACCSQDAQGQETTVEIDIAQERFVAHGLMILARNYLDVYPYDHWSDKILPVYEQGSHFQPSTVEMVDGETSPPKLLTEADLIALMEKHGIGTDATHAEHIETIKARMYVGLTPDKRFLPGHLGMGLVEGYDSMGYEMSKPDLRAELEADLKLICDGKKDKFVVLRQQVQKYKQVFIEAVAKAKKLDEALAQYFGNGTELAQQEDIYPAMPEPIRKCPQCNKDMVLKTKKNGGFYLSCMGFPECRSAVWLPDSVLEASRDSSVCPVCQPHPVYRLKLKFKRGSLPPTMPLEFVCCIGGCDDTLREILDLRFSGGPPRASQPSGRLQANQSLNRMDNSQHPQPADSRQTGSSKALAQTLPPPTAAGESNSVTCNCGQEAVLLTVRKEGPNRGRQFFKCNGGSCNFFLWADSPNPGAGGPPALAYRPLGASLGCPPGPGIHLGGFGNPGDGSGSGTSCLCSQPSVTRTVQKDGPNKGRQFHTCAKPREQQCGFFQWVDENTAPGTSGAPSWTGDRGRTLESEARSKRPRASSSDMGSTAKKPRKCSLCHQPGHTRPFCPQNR
Sequence of TOPOIIIalpha (TRR complex);RMI1 (TRR complex);RMI2 (TRR complex) (Q9H9A7 whole entry, chain 2 of 3): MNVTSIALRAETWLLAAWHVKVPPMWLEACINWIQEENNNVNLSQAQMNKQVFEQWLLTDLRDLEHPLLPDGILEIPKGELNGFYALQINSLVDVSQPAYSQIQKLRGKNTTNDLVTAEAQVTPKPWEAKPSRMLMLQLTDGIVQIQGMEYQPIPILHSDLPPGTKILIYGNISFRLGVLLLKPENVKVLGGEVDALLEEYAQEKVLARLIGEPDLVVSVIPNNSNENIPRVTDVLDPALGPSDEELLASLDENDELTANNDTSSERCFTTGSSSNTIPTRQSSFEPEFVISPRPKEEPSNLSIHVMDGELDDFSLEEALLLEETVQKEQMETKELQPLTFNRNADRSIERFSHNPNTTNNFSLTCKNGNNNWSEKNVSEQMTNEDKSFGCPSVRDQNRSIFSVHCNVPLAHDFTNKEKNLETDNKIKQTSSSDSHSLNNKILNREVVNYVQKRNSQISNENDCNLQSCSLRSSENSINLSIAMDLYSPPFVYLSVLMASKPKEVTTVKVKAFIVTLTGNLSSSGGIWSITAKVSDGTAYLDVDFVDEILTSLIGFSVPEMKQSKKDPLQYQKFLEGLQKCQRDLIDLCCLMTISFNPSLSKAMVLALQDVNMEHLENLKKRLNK
Sequence of TOPOIIIalpha (TRR complex);RMI1 (TRR complex);RMI2 (TRR complex) (Q96E14 whole entry, chain 3 of 3): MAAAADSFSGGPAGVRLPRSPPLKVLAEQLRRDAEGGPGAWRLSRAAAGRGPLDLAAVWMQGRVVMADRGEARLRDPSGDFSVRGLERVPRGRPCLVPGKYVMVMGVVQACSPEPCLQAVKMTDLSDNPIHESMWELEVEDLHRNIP

B1: ss54-FLU (ssDNA)
DNA: TCCTTTTGATAAGAGGTCATTTTTGCGGATGGCTTAGAGCTTAATTGCGCAACG
As usually defined, the Kd is the concentration at which binding is half-saturated. With B1, the Kd amounted to 64 ± 13 nM.
